Some targets named below: 92BR020 D325A (HIV-1); 92BR020 H33OA (HIV-1); 92BR020 I326A (HIV-1); 92BR020 N136A (HIV-1); 92BR020 N156A (HIV-1); 92BR020 N332A (HIV-1); 92BR020 N392A (HIV-1); 92BR020 Q328A (HIV-1); JR-CSF G324A (HIV-1) (UniProt P20871); JR-CSF I326A (HIV-1) (UniProt P20871); JR-CSF N339A (HIV-1) (UniProt P20871); JR-CSF N386A (HIV-1) (UniProt P20871); JR-CSF Q328A (HIV-1) (UniProt P20871).

Common to all, as to test: cell-based or functional assay
For assay [1], the target named is 92BR020 N136A + N332A (HIV-1).
Assay [2] deals with 92BR020 N156A + N332A (HIV-1).
Assay [3] concerns the target 92BR020 N301A + N332A (HIV-1).
Assay [4] concerns the target BG505 (T332N) N156A (HIV-1).
The target of assay [5] is BG505 (T332N) N295A (HIV-1).
The target in assay [6] is BG505 (T332N) N392A (HIV-1).
Assay [7] deals with HIV-1 Env of pseudovirus 1394C9G1(Rev-) (HIV-1).
Assay [8] has as its target HIV-1 Env of pseudovirus 7030102001E5(Rev-) (HIV-1).
Assay [9] has as its target HIV-1 Env of pseudovirus ZM247v1(Rev-) (HIV-1).
Assay [10] has as its target HIV-1 envelope (Env) of pseudovirus 1056_10_TA11_1826 (HIV-1).
Assay [11] concerns the target HIV-1 envelope (Env) of pseudovirus 191955_A11 (HIV-1).
Assay [12] deals with HIV-1 envelope (Env) of pseudovirus 249M B10 (HIV-1).
Assay [13] addresses HIV-1 envelope (Env) of pseudovirus 263-8 (HIV-1).
Assay [14] deals with HIV-1 envelope (Env) of pseudovirus 3365.v2.c2 (HIV-1).
Assay [15] concerns the target HIV-1 envelope (Env) of pseudovirus 6240_08_TA5_4622 (HIV-1).
Assay [16] has as its target HIV-1 envelope (Env) of pseudovirus 6535.3 (HIV-1).
In assay [17] the target is HIV-1 envelope (Env) of pseudovirus BJOX010000.06.2 (HIV-1).
Assay [18] deals with HIV-1 envelope (Env) of pseudovirus BJOX028000.10.3 (HIV-1).
Assay [19] deals with HIV-1 envelope (Env) of pseudovirus CAP45.2.00.G3 (HIV-1).
In assay [20] the target is HIV-1 envelope (Env) of pseudovirus Ce0682_E4 (HIV-1).
Assay [21] concerns the target HIV-1 envelope (Env) of pseudovirus P1981_C5_3 (HIV-1).
The target of assay [22] is HIV-1 envelope (Env) of pseudovirus Q769.d22 (HIV-1).
For assay [23], the target named is HIV-1 envelope (Env) of pseudovirus R1166.c01 (HIV-1).
Assay [24] concerns the target HIV-1 envelope (Env) of pseudovirus R3265.c06 (HIV-1).
Assay [25] addresses HIV-1 envelope (Env) of pseudovirus T251-18 (HIV-1).
Assay [26] concerns the target HIV-1 envelope (Env) of pseudovirus X1632_S2_B10 (HIV-1).
For assay [27], the target named is HIV-1 envelope (Env) of pseudovirus ZM135M.PL10a (HIV-1).
Assay [28] concerns the target HIV-1 envelope (Env) of pseudovirus ZM214M.PL15 (HIV-1).
The target in assay [29] is HIV-1 Env of pseudovirus 1394C9G1 (Rev-) (HIV-1).
Assay [30] addresses HIV-1 Env of pseudovirus ZM135M.PL10a (HIV-1).
Assay [31] concerns the target HIV-1 YU2 Env N160K, on pseudovirus (HIV-1) (UniProt P35961).

Regarding 354BG8 (antibody), the IC50 in TZM-bl assay with 92BR020 D325A (HIV-1) was 0.006 µg/mL; with 92BR020 H33OA (HIV-1), 0.018 µg/mL; with 92BR020 I326A (HIV-1), 0.006 µg/mL; in the assay with 92BR020 N136A (HIV-1), 0.005 µg/mL; in assay [1], over 50 µg/mL; with 92BR020 N156A (HIV-1) it was 0.011 µg/mL. Besides, the IC50 in TZM-bl assay in assay [2] was over 50 µg/mL; in [3], over 50 µg/mL; in the assay with 92BR020 N332A (HIV-1) it was over 50 µg/mL; with 92BR020 N392A (HIV-1) it was 0.023 µg/mL; in the assay with 92BR020 Q328A (HIV-1) it was 0.018 µg/mL; in assay [4], 0.008 µg/mL. The IC50 in TZM-bl assay in assay [5] stood at 0.009 µg/mL; in assay [6] it was 0.005 µg/mL; in assay [7] it was 0.031 µg/mL; in [8], 0.009 µg/mL; in assay [9], 0.042 µg/mL; with JR-CSF G324A (HIV-1), 0.005 µg/mL. The IC50 in TZM-bl assay amounted to 0.005 µg/mL in the assay with JR-CSF I326A (HIV-1), 0.01 µg/mL with JR-CSF N339A (HIV-1), 0.012 µg/mL with JR-CSF N386A (HIV-1) and 0.023 µg/mL with JR-CSF Q328A (HIV-1). Besides, the IC80 in TZM-bl assay in assay [7] came to 0.093 µg/mL; in assay [8], 0.019 µg/mL; in assay [9] it was 0.146 µg/mL.
Consider BG1 (antibody), for which the IC50 in TZM-bl assay in assay [10] was 5.43 µg/mL; in assay [11] it was 0.008 µg/mL; in assay [12], 1.47 µg/mL; in [13], over 30 µg/mL; in assay [14], 1.16 µg/mL; in [15], over 30 µg/mL. Besides, the IC50 in TZM-bl assay was 0.322 µg/mL in assay [16]; over 30 µg/mL in [17]; over 30 µg/mL in assay [18]; 0.149 µg/mL in [19]; over 30 µg/mL in assay [20]; over 30 µg/mL in [21]. Besides, the IC50 in TZM-bl assay was over 30 µg/mL in [22]; over 30 µg/mL in assay [23]; 0.611 µg/mL in [24]; 3.59 µg/mL in [25]; 0.079 µg/mL in [26]; over 30 µg/mL in assay [27]. This substance also registered an IC50 in TZM-bl assay in assay [28] of over 30 µg/mL. The IC80 in TZM-bl assay in assay [10] is 29.9 µg/mL; in [11], 0.018 µg/mL; in assay [12], 5.45 µg/mL; in assay [13], over 30 µg/mL; in assay [14] it was 4.27 µg/mL; in assay [15], over 30 µg/mL. In addition, the IC80 in TZM-bl assay is 1.13 µg/mL in assay [16]; over 30 µg/mL in [17]; over 30 µg/mL in [18]; 0.383 µg/mL in assay [19]; over 30 µg/mL in [20]; over 30 µg/mL in assay [21]. In addition, the IC80 in TZM-bl assay in [22] was over 30 µg/mL; in [23], over 30 µg/mL; in [24], 3.44 µg/mL; in assay [25] it was 18 µg/mL; in assay [26] it was 0.25 µg/mL; in assay [27], over 30 µg/mL. Also, the IC80 in TZM-bl assay in assay [28] is over 30 µg/mL.
With BG18 IgG (354BG18) (antibody), the IC50 in TZM-bl assay in assay [29] is 0.029 µg/mL; in assay [30], 0.029 µg/mL; in assay [31] it was 0.028 µg/mL. Also, the IC80 in TZM-bl assay in assay [29] was 0.35 µg/mL; in [30] it was 0.161 µg/mL; in assay [31], 0.15 µg/mL.
Regarding PGT121 (antibody), the IC50 in TZM-bl assay was 0.006 µg/mL in the assay with 92BR020 D325A (HIV-1); 0.003 µg/mL with 92BR020 H33OA (HIV-1); 0.002 µg/mL in the assay with 92BR020 I326A (HIV-1); 0.002 µg/mL with 92BR020 N136A (HIV-1); over 1 µg/mL in [1]; 0.003 µg/mL with 92BR020 N156A (HIV-1). For the same substance, the IC50 in TZM-bl assay in [2] is over 1 µg/mL; in [3], over 1 µg/mL; with 92BR020 N332A (HIV-1) it was 0.08 µg/mL; with 92BR020 N392A (HIV-1), 0.007 µg/mL; with 92BR020 Q328A (HIV-1) it was 0.002 µg/mL; in assay [4] it was 0.007 µg/mL. Further, the IC50 in TZM-bl assay in [5] amounted to 0.014 µg/mL; in assay [6] it was 0.006 µg/mL; in [7] it was 0.823 µg/mL; in [30] it was 0.73 µg/mL; in assay [9] it was 0.036 µg/mL; with JR-CSF G324A (HIV-1), 0.044 µg/mL. For the same substance, the IC50 in TZM-bl assay is 0.024 µg/mL in the assay with JR-CSF I326A (HIV-1), 0.007 µg/mL in the assay with JR-CSF N339A (HIV-1), 0.024 µg/mL with JR-CSF N386A (HIV-1) and 0.057 µg/mL with JR-CSF Q328A (HIV-1). Further, the IC80 in TZM-bl assay is 6.23 µg/mL in [7], 0.042 µg/mL in assay [8], 5.73 µg/mL in assay [30] and 0.123 µg/mL in [9].

The values above are taken from patent US11325966.
